Experimental data as given in the supplement of paper PMC10567573.

B1: PTPLAD1 (parent)
chain: YSFYMLTCIDMDWKVLTWLRYTLW
B2: TPRG1 (parent)
chain: ETIQGFWLLTKIDHWNNEKERILL
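Also: lentivirally expressed fusions sorted by FACS into six bins by GFP to DsRed ratio, PSI derived from sequencing read proportions per bin multiplied by bin number.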

Variants of: B1
Test: protein stability index of a GFP-peptide fusion (GPS, HEK-293T) (PSI 1-6); higher = more stable
Conditions: c terminus: a fixed tail appended
For R20G, the protein stability index was 3.
M11A gave a protein stability index of 3.31.
Work on W13H yielded a protein stability index of 2.36.
With R20A the protein stability index was 2.88.
T7R gave a protein stability index of 2.4.
L16V showed a protein stability index of 1.5.
D10R gave a protein stability index of 3.09.
W13E gave a protein stability index of 2.56.
F3G showed a protein stability index of 2.24.
Variant W24H has a protein stability index of 3.02.
For S2P, the protein stability index was 2.62.
For L6P, the protein stability index was 2.45.
M11E showed a protein stability index of 2.15.
Variant M5S has a protein stability index of 1.4.
Work on Y1L yielded a protein stability index of 1.47.
Variant L19F has a protein stability index of 3.32.
In the case of M11V, the protein stability index is reported as 2.87.
C8K gave a protein stability index of 3.09.
For V15Q, the protein stability index was 2.69.
Work on T17Q yielded a protein stability index of 2.82.
I9R gave a protein stability index of 2.45.
In the case of S2A, the protein stability index is reported as 2.3.
W13G showed a protein stability index of 3.3.
With W24F the protein stability index was 2.24.
With T22R the protein stability index was 2.25.
With M5V the protein stability index was 2.62.
Variant R20Y has a protein stability index of 2.42.
In the case of Y4R, the protein stability index is reported as 2.28.
For W18M, the protein stability index was 1.84.
For Y21Q, the protein stability index was 2.17.
Work on M11N yielded a protein stability index of 1.86.
R20V showed a protein stability index of 2.13.
Work on T17C yielded a protein stability index of 1.67.
In the case of V15N, the protein stability index is reported as 2.59.
K14H gave a protein stability index of 2.97.
For Y4P, the protein stability index was 2.72.
Y21I showed a protein stability index of 2.98.
Work on L16N yielded a protein stability index of 4.69.
For D10Q, the protein stability index was 3.51.
Variant W13R has a protein stability index of 2.4.
In the case of I9F, the protein stability index is reported as 2.17.
In the case of R20T, the protein stability index is reported as 3.6.
With R20C the protein stability index was 1.52.
Variant D12G has a protein stability index of 2.15.
Work on T7G yielded a protein stability index of 1.4.
Work on F3N yielded a protein stability index of 1.46.
With D10L the protein stability index was 1.38.
For L19Y, the protein stability index was 2.91.
For W24A, the protein stability index was 2.83.
Variant S2R has a protein stability index of 2.84.
In the case of W13K, the protein stability index is reported as 2.71.
Variant K14Q has a protein stability index of 2.03.
Work on M5N yielded a protein stability index of 2.21.
Variant D10I has a protein stability index of 2.96.
D12K gave a protein stability index of 3.14.
For S2H, the protein stability index was 2.1.
L19N gave a protein stability index of 3.55.
Variant W24Y has a protein stability index of 2.72.
T22H gave a protein stability index of 2.85.
Work on I9W yielded a protein stability index of 1.96.

Variants of: B2
Test: as above
Conditions: c terminus: a fixed tail appended
With E1A the protein stability index was 2.75.
With E1D the protein stability index was 2.8.
E1H gave a protein stability index of 2.48.
E1I showed a protein stability index of 3.09.
For E1L, the protein stability index was 4.7.
Variant E1N has a protein stability index of 2.13.
For E1P, the protein stability index was 2.65.
In the case of E1Q, the protein stability index is reported as 3.37.
E1S gave a protein stability index of 2.85.
E1T showed a protein stability index of 1.82.
E1V showed a protein stability index of 4.74.
T2C showed a protein stability index of 1.55.
For T2D, the protein stability index was 1.91.
T2E gave a protein stability index of 2.51.
T2H showed a protein stability index of 1.67.
With T2K the protein stability index was 2.22.
T2L showed a protein stability index of 1.67.
Work on T2N yielded a protein stability index of 2.16.
With T2P the protein stability index was 1.61.
Variant T2Q has a protein stability index of 2.82.
For T2R, the protein stability index was 3.03.
Variant T2Y has a protein stability index of 3.19.
For I3C, the protein stability index was 2.25.
I3D gave a protein stability index of 1.39.
Variant I3E has a protein stability index of 2.04.
I3G showed a protein stability index of 2.14.
In the case of I3L, the protein stability index is reported as 1.53.
I3N gave a protein stability index of 1.71.
Variant I3P has a protein stability index of 2.05.
In the case of I3Q, the protein stability index is reported as 1.99.
Variant I3R has a protein stability index of 1.88.
Work on I3S yielded a protein stability index of 1.28.
For I3T, the protein stability index was 2.18.
Work on I3V yielded a protein stability index of 3.9.
For I3Y, the protein stability index was 2.55.
Work on Q4D yielded a protein stability index of 3.98.
For Q4E, the protein stability index was 2.23.
For Q4G, the protein stability index was 2.68.
Q4H gave a protein stability index of 1.97.
With Q4K the protein stability index was 2.89.
For Q4M, the protein stability index was 3.23.
Q4N showed a protein stability index of 1.82.
Work on Q4P yielded a protein stability index of 3.54.
Work on Q4T yielded a protein stability index of 1.88.
Q4Y showed a protein stability index of 2.77.
G5C gave a protein stability index of 3.97.
G5H gave a protein stability index of 2.36.
G5I showed a protein stability index of 1.69.
G5K gave a protein stability index of 2.04.
In the case of G5L, the protein stability index is reported as 1.38.
For G5P, the protein stability index was 2.33.
With G5Q the protein stability index was 1.98.
Variant G5S has a protein stability index of 2.
G5W gave a protein stability index of 3.06.
In the case of G5Y, the protein stability index is reported as 2.95.
Variant F6C has a protein stability index of 3.16.
Variant F6D has a protein stability index of 1.72.
F6E gave a protein stability index of 2.25.
F6G showed a protein stability index of 1.97.
Variant F6H has a protein stability index of 1.94.
For F6K, the protein stability index was 1.3.
For F6M, the protein stability index was 1.48.
F6N gave a protein stability index of 2.11.
F6P showed a protein stability index of 1.74.
Variant F6Q has a protein stability index of 1.91.
In the case of F6R, the protein stability index is reported as 1.91.
F6S gave a protein stability index of 2.37.
F6T showed a protein stability index of 2.69.
Variant F6V has a protein stability index of 2.36.
F6W showed a protein stability index of 1.12.
For F6Y, the protein stability index was 2.51.
W7A showed a protein stability index of 1.91.
Work on W7C yielded a protein stability index of 3.25.
W7D showed a protein stability index of 2.25.
Work on W7E yielded a protein stability index of 1.93.
W7G gave a protein stability index of 2.31.
W7H showed a protein stability index of 1.04.
Work on W7K yielded a protein stability index of 1.86.
For W7L, the protein stability index was 2.08.
Variant W7M has a protein stability index of 3.58.
W7N gave a protein stability index of 2.18.
W7P gave a protein stability index of 2.56.
W7Q showed a protein stability index of 1.83.
In the case of W7R, the protein stability index is reported as 2.23.
Variant W7S has a protein stability index of 2.1.
In the case of W7T, the protein stability index is reported as 1.51.
W7V showed a protein stability index of 3.28.
With L8A the protein stability index was 2.08.
L8D showed a protein stability index of 2.34.
L8E gave a protein stability index of 2.42.
For L8G, the protein stability index was 1.61.
L8H gave a protein stability index of 2.04.
In the case of L8K, the protein stability index is reported as 3.05.
Variant L8N has a protein stability index of 1.99.
In the case of L8P, the protein stability index is reported as 1.43.
In the case of L8Q, the protein stability index is reported as 1.53.
Variant L8R has a protein stability index of 2.26.
Variant L8S has a protein stability index of 1.56.
L8T gave a protein stability index of 2.54.
With L8V the protein stability index was 2.27.
L8W gave a protein stability index of 1.43.
Work on L8Y yielded a protein stability index of 4.07.
L9C gave a protein stability index of 2.35.
Work on L9D yielded a protein stability index of 1.58.
Work on L9E yielded a protein stability index of 2.2.
L9F gave a protein stability index of 3.19.
In the case of L9G, the protein stability index is reported as 2.15.
